Results as given in patent US20090246175A1.

Experiments:
[1] = biological target: C3 convertases (C4b2a and C3bBb); assay: cell-based or functional assay
[2] = biological target: classical and lectin pathway C3 convertase C4b2a (human) (UniProt P0C0L4); assay: cell-based or functional assay
Chain of UniProt P0C0L4 (P0C0L4 20-1744 limits assumed, chain 1 of 2): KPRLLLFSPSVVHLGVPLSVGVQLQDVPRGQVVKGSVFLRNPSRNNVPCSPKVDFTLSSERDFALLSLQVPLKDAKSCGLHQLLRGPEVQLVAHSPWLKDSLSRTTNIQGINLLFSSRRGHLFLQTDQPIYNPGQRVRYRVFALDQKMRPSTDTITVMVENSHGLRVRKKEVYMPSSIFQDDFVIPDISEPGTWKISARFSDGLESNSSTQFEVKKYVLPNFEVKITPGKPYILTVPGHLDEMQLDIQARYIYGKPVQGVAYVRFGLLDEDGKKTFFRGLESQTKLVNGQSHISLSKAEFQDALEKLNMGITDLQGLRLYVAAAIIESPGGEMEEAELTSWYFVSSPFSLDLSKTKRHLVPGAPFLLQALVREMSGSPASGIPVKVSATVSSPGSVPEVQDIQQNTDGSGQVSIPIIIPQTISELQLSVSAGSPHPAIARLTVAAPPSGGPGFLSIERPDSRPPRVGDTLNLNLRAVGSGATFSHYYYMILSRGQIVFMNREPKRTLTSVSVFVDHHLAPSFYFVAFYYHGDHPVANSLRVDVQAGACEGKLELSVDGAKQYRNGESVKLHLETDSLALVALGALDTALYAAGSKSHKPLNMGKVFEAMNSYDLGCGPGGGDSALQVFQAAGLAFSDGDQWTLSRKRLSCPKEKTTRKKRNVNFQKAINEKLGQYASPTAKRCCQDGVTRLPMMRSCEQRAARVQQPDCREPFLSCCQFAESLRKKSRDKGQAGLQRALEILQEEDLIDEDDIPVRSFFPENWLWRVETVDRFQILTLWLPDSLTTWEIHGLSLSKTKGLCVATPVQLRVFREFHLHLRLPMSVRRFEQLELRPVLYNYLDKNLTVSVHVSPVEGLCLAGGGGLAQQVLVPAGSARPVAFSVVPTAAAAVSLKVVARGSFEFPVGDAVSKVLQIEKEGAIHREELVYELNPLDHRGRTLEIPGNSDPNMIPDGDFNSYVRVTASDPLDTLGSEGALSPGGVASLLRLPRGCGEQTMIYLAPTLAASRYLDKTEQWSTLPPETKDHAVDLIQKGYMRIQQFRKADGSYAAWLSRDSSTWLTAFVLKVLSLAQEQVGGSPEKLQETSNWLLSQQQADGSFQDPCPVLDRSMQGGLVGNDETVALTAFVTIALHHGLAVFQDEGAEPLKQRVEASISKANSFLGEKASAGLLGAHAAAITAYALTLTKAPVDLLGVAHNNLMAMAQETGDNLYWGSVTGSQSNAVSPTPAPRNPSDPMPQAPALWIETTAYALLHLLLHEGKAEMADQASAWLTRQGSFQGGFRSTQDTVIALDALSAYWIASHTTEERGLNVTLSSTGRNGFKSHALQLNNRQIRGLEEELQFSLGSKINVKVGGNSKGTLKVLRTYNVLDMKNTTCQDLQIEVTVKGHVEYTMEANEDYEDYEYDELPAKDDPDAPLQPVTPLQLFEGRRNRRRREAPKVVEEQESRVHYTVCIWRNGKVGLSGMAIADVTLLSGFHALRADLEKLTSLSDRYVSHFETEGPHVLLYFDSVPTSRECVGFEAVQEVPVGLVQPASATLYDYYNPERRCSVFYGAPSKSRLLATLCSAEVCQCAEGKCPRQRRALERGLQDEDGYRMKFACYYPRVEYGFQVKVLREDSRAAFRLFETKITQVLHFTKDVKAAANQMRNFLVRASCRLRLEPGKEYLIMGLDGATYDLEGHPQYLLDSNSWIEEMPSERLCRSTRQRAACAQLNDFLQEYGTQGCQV
Chain of UniProt P0C0L4 (P06681 244-752 limits assumed, chain 2 of 2, further chain): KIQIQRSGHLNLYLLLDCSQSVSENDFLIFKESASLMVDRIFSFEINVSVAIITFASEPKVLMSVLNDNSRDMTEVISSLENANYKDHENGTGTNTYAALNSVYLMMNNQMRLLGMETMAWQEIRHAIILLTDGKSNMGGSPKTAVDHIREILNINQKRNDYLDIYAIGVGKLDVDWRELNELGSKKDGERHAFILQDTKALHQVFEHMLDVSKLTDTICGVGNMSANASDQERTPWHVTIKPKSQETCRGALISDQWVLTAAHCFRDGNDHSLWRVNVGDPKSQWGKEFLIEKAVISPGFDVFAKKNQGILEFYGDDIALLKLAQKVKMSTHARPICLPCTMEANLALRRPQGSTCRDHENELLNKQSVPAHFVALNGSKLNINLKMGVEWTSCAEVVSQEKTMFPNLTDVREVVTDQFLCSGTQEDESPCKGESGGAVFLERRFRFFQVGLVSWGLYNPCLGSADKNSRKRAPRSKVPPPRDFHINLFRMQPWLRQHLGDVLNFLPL

Row | Substance | IC50 of phagocytosis of S. aureus by human neutrophils in 10% human sera [1] [µg/mL] | C5b-9 and C3b deposition via the CP and LP (ELISA) (% inhibition at 10 µg/ml) [2]
1 | recombinant SCIN-B (rSCIN-B) | 0.8 | –
2 | recombinant SCIN-C (rSCIN-C) | 0.12 | –
3 | recombinant Staphylococcal Complement Inhibitor (rSCIN) | 0.3 | 50
